Assay results published in PMC10881741, “Structural modifications toward improved lead-203/lead-212 peptide-based image-guided alpha-particle radiopharmaceutical therapies for neuroendocrine tumors” (European Journal of Nuclear Medicine and Molecular Imaging, 2023).
Read-outs that look alike come from different tables or passages of the source.

Legend:
midgut NETs = test system: midgut NETs; set-up: method as in PMID 28076709, PMID 28428192; details: patients with midgut NETs ref 5, 6; cited from earlier work
[1] = In vivo biodistribution of ^203Pb-labeled peptides; set-up: species or system mice; details: female, athymic nu/nu, mouse, intravenous, 37 kBq, total radioactivity; for tissue uptake at 3 h: 3 h post-administration; for tissue uptake at 24 h: 24 h post-administration; for tissue uptake at 1 h: 1 h post-administration
Procedure: AR42J cells (5.0 × 10^6 cells/animal) were implanted subcutaneously on the left shoulder of female athymic nu/nu mice. […] Extra groups of mice were co-administered 37 kBq of ^203Pb-PSC-PEG2-TOC with DL-lysine (400 mg/kg) to determine the effect of amino acid on renal uptake of the radiopharmaceutical. Mice (n=3 per time point) were euthanized at 1, 3, and 24 h post-administration, and tumors and organs/tissues of interest were excised and weighed. The radioactivities of the samples were measured using the gamma counter.

SSTR2 = biological target: T1, SSTR2 (Rattus norvegicus, UniProt P30680); assay: In vitro competitive binding assay ([^125I]I-TOC displacement in AR42J cells)
T1 construct: host or cells: AR42J rat pancreatic acinar cells
Procedure: SSTR2-positive AR42J rat pancreatic acinar cells were purchased from the American Type Culture Collection (ATCC; CRL-1492) and were cultured in RPMI 1640 medium, supplemented with 10% fetal bovine serum (FBS), 2 mM glutamine, and antibiotics (0.1 mg/mL streptomycin and 100 IU penicillin) at 37 °C under a humidified condition (5% CO2). The cells were plated into poly-D-lysine-coated 24-well plates at a density of 1.0 × 10^5 cells per well. […] Cells were then washed twice with ice-cold PBS and lysed with 0.5 N NaOH. The radioactivities of the harvested samples were measured using an automated gamma counter (PerkinElmer Cobra II; PerkinElmer, Freemont, CA). IC50 was determined using GraphPad Prism V8.0.

[2] = Stability in water and human serum (radio-HPLC); format: in vitro ADME; details: ^203Pb-labeled, 37 °C, up to 24 h
Excerpt: New peptides were designed and synthesized using standard fluorenylmethyloxycarbonyl (Fmoc)-based solid phase peptide synthesis. The peptides were developed under two basic strategies: (a) a click cyclization approach to substitute the disulfide bond of TOC with a triazole link, which potentially improves PK and in vivo stability; and (b) Pb-specific structural optimization based on TOC by incorporating the new chelator composition and various sizes of PEG linkers (Fig. 1 and Table 1). […] The radiolabeling and purification process for the preparation of ^203Pb/^212Pb-labeled peptides followed the methods outlined in a previously published study. […] The stability of the most promising RPDC, [^203Pb]Pb-PSC-PEG2-TOC, was evaluated in water and normal human serum up to 24 h of incubation at 37 °C using the radio-HPLC system. Furthermore, PSC-PEG2-TOC was assessed for a radiolabeling yield with clinically relevant ^203Pb activity (1.8–3.6 GBq) to assess changes in performance with increases in molar activity (MBq/nmol; Supplementary Material).
PSC-PEG2-TOC was characterized for stability in water and human serum. […] The penetrate by centrifugation (serum samples) or the samples in water were analyzed by a radio-HPLC system (Agilent 1200 Series connected with an IN/US β-RAM Model 4 radio-detector) to monitor the degree of peptide degradation.

[3] = large intestine, read-out: Large intestine
[4] = small intestine, read-out: Small intestine

T1 sequence (P30680 whole entry): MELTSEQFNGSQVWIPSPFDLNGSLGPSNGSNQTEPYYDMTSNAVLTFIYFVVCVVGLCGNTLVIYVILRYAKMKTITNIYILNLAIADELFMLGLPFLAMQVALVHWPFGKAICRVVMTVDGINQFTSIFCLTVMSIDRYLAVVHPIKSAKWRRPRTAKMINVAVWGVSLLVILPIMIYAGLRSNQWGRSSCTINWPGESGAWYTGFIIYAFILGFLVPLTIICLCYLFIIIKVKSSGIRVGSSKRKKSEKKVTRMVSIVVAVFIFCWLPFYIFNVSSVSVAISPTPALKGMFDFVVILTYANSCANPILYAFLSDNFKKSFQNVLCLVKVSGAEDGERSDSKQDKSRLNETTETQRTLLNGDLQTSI

Q: With [^177Lu]Lu-DOTATATE as the compound, how does the Complete response rate (midgut NETs) read?
A: Its Complete response rate is 1%.

Q: And the Objective responses (midgut NETs)?
A: Its Objective responses is 18–30%.

Q: What does the source list for C[C@@H](O)[C@@H]1NC(=O)[C@H](CCCCN)NC(=O)[C@@H](Cc2c[nH]c3ccccc23)NC(=O)[C@H](Cc2ccc(O)cc2)NC(=O)[C@@H](NC(=O)[C@@H](Cc2ccccc2)NC(=O)CN2CCN(CC(=O)O)CCN(CC(=O)O)CCN(CC(=O)O)CC2)CSSC[C@@H](C(=O)N[C@H](CO)[C@@H](C)O)NC1=O [[^203Pb]Pb-DOTATOC, metal not drawn, reference compound]?
A: tissue uptake at 3 h ([1]; blood, read-out: Blood): 0.02 %ID/g; tissue uptake at 24 h ([1]; blood, read-out: Blood): 0.01 %ID/g; tissue uptake at 1 h ([1]; brain, read-out: Brain): 0.03 ± 0.01 %ID/g; tissue uptake at 3 h ([1]; brain, read-out: Brain): 0.01 %ID/g; tissue uptake at 24 h ([1]; brain, read-out: Brain): 0.01 %ID/g; tissue uptake at 3 h ([1]; heart, read-out: Heart): 0.07 ± 0.05 %ID/g; tissue uptake at 24 h ([1]; heart, read-out: Heart): 0.02 ± 0.01 %ID/g; tissue uptake at 1 h ([1]; kidneys, read-out: Kidneys): 12.2 %ID/g; tissue uptake at 3 h ([1]; kidneys, read-out: Kidneys): 14.6 ± 2.34 %ID/g; tissue uptake at 24 h ([1]; kidneys, read-out: Kidneys): 7.6 %ID/g; tissue uptake at 1 h [1, 3]: 0.32 ± 0.12 %ID/g; tissue uptake at 3 h [1, 3]: 1.11 ± 0.74 %ID/g; tissue uptake at 24 h [1, 3]: 0.17 ± 0.04 %ID/g; tissue uptake at 1 h ([1]; liver, read-out: Liver): 0.28 ± 0.05 %ID/g; tissue uptake at 3 h ([1]; liver, read-out: Liver): 0.16 ± 0.02 %ID/g; tissue uptake at 24 h ([1]; liver, read-out: Liver): 0.08 ± 0.01 %ID/g; tissue uptake at 1 h ([1]; lung, read-out: Lung): 0.91 ± 0.41 %ID/g; tissue uptake at 3 h ([1]; lung, read-out: Lung): 0.59 ± 0.23 %ID/g; tissue uptake at 24 h ([1]; lung, read-out: Lung): 0.27 ± 0.04 %ID/g; tissue uptake at 1 h ([1]; muscle, read-out: Muscle): 0.1 ± 0.03 %ID/g; tissue uptake at 3 h ([1]; muscle, read-out: Muscle): 0.04 ± 0.01 %ID/g; tissue uptake at 24 h ([1]; muscle, read-out: Muscle): 0.02 %ID/g; tissue uptake at 1 h [1, 4]: 1.91 ± 0.8 %ID/g; tissue uptake at 3 h [1, 4]: 1.78 ± 2.19 %ID/g; tissue uptake at 24 h [1, 4]: 0.08 ± 0.06 %ID/g; tissue uptake at 1 h ([1]; spleen, read-out: Spleen): 0.27 ± 0.05 %ID/g; tissue uptake at 24 h ([1]; spleen, read-out: Spleen): 0.1 ± 0.01 %ID/g; tissue uptake at 1 h ([1]; tumor, read-out: Tumor): 4.6 ± 0.18 %ID/g; tissue uptake at 3 h ([1]; tumor, read-out: Tumor): 4.47 ± 0.75 %ID/g; tissue uptake at 24 h ([1]; tumor, read-out: Tumor): 2.44 ± 0.19 %ID/g

Q: Which “Improvement in affinity vs. DOTATOC (factor)” value (SSTR2) does the source give for C[C@@H](O)[C@@H]1NC(=O)[C@H](CCCCN)NC(=O)[C@@H](Cc2c[nH]c3ccccc23)NC(=O)[C@H](Cc2ccc(O)cc2)NC(=O)[C@@H](NC(=O)[C@@H](Cc2ccccc2)NC(=O)CCOCCOCCNC(=O)CN2CCN(CC(=O)O)CCN(CC(N)=O)CCN(CC(=O)O)CC2)CSSC[C@@H](C(=O)N[C@H](CO)[C@@H](C)O)NC1=O [PSC-PEG2-TOC, PSC-PEG2-D-Phe-cyclo[Cys-Tyr-D-Trp-Lys-Thr-Cys]-Thr-OH] here?
A: The value was over 2.

Q: What about the “Radiochemical and metabolic stability” value [2] of the same compound?
A: Its value is “robust radiochemical stability”.
